From PMC11188183 come the findings set out here.

Assay [1] concerns the target kinesin family member C1 (KIFC1) (human) (UniProt Q9BW19).
For assay [2] the target is unchanged. The experiment in a line: affinity purification with mass spectrometry; anti-KIFC1 antibody (Abcam ab172620) crosslinked to magnetic beads; nuclear lysate of HCC1806 (AA) cells; LC-MS/MS of the eluate.
The target is the same in assay [3]. The experiment in a line: affinity purification with mass spectrometry; anti-KIFC1 antibody (Abcam ab172620) crosslinked to magnetic beads; nuclear lysate of MDA-MB-468 (AA) cells; LC-MS/MS of the eluate.

Sequence of UniProt Q9BW19 (Q9BW19 whole entry): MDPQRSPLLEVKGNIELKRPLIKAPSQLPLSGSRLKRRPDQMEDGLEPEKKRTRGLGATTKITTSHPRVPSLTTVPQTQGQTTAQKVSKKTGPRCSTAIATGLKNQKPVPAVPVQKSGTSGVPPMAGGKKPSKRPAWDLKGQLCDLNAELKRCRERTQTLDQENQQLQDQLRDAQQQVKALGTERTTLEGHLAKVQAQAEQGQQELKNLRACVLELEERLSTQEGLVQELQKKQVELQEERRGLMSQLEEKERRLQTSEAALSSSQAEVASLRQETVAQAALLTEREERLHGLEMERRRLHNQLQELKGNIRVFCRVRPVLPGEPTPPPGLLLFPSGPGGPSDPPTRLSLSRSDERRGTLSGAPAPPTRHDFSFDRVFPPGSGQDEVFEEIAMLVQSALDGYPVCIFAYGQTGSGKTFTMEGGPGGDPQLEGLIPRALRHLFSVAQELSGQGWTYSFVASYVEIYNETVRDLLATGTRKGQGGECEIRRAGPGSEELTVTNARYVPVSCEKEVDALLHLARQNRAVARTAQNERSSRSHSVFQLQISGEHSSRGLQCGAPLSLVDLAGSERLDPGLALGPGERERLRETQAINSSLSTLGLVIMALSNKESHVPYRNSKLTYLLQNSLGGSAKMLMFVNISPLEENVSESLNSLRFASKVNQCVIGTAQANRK

As for “myosin heavy chain 9 (MYH9) (from UniProt P35579 1-1960) (natural protein)”, in assay [1], the BrdU cell proliferation of AA TNBC cells treated with CW069 + blebbistatin amounted to 1.5 fold. Also, the figures for the relative abundance of MYH9 in the nKIFC1 immunoprecipitate, fold over MDA-MB-231 in assay [2] and in assay [3] were 1.6 fold and 1.8 fold, respectively.
